To fix the notation:
B1: Vascular endothelial growth factor receptor 1 (Homo sapiens), P17948 (parent)
chain: MVSYWDTGVLLCALLSCLLLTGSSSGSKLKDPELSLKGTQHIMQAGQTLHLQCRGEAAHKWSLPEMVSKESERLSITKSACGRNGKQFCSTLTLNTAQANHTGFYSCKYLAVPTSKKKETESAIYIFISDTGRPFVEMYSEIPEIIHMTEGRELVIPCRVTSPNITVTLKKFPLDTLIPDGKRIIWDSRKGFIISNATYKEIGLLTCEATVNGHLYKTNYLTHRQTNTIIDVQISTPRPVKLLRGHTLVLNCTATTPLNTRVQMTWSYPDEKNKRASVRRRIDQSNSHANIFYSVLTIDKMQNKDKGLYTCRVRSGPSFKSVNTSVHIYDKAFITVKHRKQQVLETVAGKRSYRLSMKVKAFPSPEVVWLKDGLPATEKSARYLTRGYSLIIKDVTEEDAGNYTILLSIKQSNVFKNLTATLIVNVKPQIYEKAVSSFPDPALYPLGSRQILTCTAYGIPQPTIKWFWHPCNHNHSEARCDFCSNNEESFILDADSNMGNRIESITQRMAIIEGKNKMASTLVVADSRISGIYICIASNKVGTVGRNISFYITDVPNGFHVNLEKMPTEGEDLKLSCTVNKFLYRDVTWILLRTVNNRTMHYSISKQKMAITKEHSITLNLTIMNVSLQDSGTYACRARNVYTGEEILQKKEITIRDQEAPYLLRNLSDHTVAISSSTTLDCHANGVPEPQITWFKNNHKIQQEPGIILGPGSSTLFIERVTEEDEGVYHCKATNQKGSVESSAYLTVQGTSDKSNLELITLTCTCVAATLFWLLLTLFIRKMKRSSSEIKTDYLSIIMDPDEVPLDEQCERLPYDASKWEFARERLKLGKSLGRGAFGKVVQASAFGIKKSPTCRTVAVKMLKEGATASEYKALMTELKILTHIGHHLNVVNLLGACTKQGGPLMVIVEYCKYGNLSNYLKSKRDLFFLNKDAALHMEPKKEKMEPGLEQGKKPRLDSVTSSESFASSGFQEDKSLSDVEEEEDSDGFYKEPITMEDLISYSFQVARGMEFLSSRKCIHRDLAARNILLSENNVVKICDFGLARDIYKNPDYVRKGDTRLPLKWMAPESIFDKIYSTKSDVWSYGVLLWEIFSLGGSPYPGVQMDEDFCSRLREGMRMRAPEYSTPEIYQIMLDCWHRDPKERPRFAELVEKLGDLLQANVQQDGKDYIPINAILTGNSGFTYSTPAFSEDFFKESISAPKFNSGSSDDVRYVNAFKFMSLERIKTFEELLPNATSMFDDYQGDSSTLLASPMLKRFTWTDSKPKASLKIDLRVTSKSKESGLSDVSRPSFCHSSCGHVSEGKRRFTYDHAELERKIACCSPPPDYNSVVLYSTPPI

The first test covers variants of B1. As to conditions: with p85a_human PIK3R1, P27986.
p85a_human PIK3R1, P27986, sequence (P27986 whole entry): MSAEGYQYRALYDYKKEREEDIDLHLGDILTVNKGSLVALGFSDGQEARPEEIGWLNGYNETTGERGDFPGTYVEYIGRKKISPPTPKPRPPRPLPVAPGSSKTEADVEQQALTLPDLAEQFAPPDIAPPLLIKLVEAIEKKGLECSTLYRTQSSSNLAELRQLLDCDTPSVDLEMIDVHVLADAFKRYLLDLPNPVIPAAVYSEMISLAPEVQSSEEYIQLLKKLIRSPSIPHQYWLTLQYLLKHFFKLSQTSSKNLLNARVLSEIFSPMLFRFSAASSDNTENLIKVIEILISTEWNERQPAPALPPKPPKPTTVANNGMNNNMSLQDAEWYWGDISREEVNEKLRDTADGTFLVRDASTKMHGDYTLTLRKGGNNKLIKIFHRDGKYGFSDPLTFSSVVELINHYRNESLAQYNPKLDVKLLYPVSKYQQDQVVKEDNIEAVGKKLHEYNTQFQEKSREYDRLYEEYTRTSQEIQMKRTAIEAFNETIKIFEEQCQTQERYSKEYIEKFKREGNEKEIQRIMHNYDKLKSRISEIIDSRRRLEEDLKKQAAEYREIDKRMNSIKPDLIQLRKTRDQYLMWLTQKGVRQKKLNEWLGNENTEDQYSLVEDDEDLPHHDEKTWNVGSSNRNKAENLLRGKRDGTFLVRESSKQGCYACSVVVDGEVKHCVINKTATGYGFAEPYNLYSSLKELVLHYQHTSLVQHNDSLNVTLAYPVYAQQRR
Turning to Y1213F, the “effect of a mutation on the interaction” value is reported as “disrupting interaction”.

Take Y1130F: the “effect of a mutation on the interaction” value is given as “with no effect”.

In another test the parent is B1. To be noted: with p85a_human PIK3R1, P27986. This is another data set of the same source.
In the case of Y1130F, the “effect of a mutation on the interaction” value was “decreasing interaction”. Take Y1309F: the “effect of a mutation on the interaction” value is given as “with no effect”. The same measure, in the same setting: the result for K861A reads “disrupting interaction”; that for Y1124F;Y1184F;Y1333F, “with no effect”; that for Y1327F, “with no effect”.

The record behind these values is IntAct's records for PubMed 7657594.
